The data set in a line: collision cross section of modified peptide (TIMS, N2, iRT-aligned); higher = larger / more extended gas-phase ion. The protocol: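 1/K0 was aligned run-wise to spiked iRT peptides and converted to CCS in N2 (Mason-Schamp). Values are the mean of 1-3 technical replicates for the most abundant feature at each charge state.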
The mark [1] stands for this setting: charge state: 2, modification: Nitro (Y).
The mark [2] stands for this setting: charge state: 3, modification: Nitro (Y).
Where [3] appears, read: charge state: 2, modification: Acetyl (K).
Where [4] appears, read: charge state: 3, modification: Acetyl (K).
[5] abbreviates: charge state: 2, modification: Succinyl.
Where [6] appears, read: charge state: 3, modification: Succinyl.
The mark [7] stands for this setting: charge state: 2, modification: hydroxyisobutyryl.
Setting [8] is: charge state: 3, modification: hydroxyisobutyryl.
The mark [9] stands for this setting: charge state: 2, modification: Glutarylation.
[10] abbreviates: charge state: 2, modification: GlyGly (K).
Setting [11] is: charge state: 3, modification: GlyGly (K).
Setting [12] is: charge state: 2, modification: Formyl.
The mark [13] stands for this setting: charge state: 2, modification: Crotonyl.
The mark [14] stands for this setting: charge state: 3, modification: Crotonyl.

± gives the standard deviation.

“GNDISSGTVLSDYVGSGPPK [_GNDISSGTVLSDY(Nitro (Y))VGSGPPK_]” had a collision cross section under setting [1] of 466.4 ± 0.42 Å².

Regarding “GVEAVGSYAENQR [_GVEAVGSY(Nitro (Y))AENQR_]”, the collision cross section reads like this: under setting [1], 377.43 ± 0.17 Å²; under setting [2], 473.04 ± 0.83 Å².

In turn, “VLTANSNPSSPSAAKR [_VLTANSNPSSPSAAK(Acetyl (K))R_]” registered a collision cross section under setting [3] of 425 ± 2.5 Å² and a collision cross section under setting [4] of 527.55 ± 2.3 Å².

Turning to “IHVQSSSDSSDEPAEKR [_IHVQSSSDSSDEPAEK(Succinyl)R_]”, the collision cross section came out at 452.62 ± 0.81 Å² under setting [5] and 507.09 ± 1.9 Å² under setting [6].

The sequence “TQAYQDQKPGTSGLR [_TQAYQDQK(Succinyl)PGTSGLR_]” returned a collision cross section under setting [5] of 434.09 ± 1.1 Å² and a collision cross section under setting [6] of 483.43 ± 3.9 Å².

Consider VETFSGVYK [_VETFSGVY(Nitro (Y))K_], for which the collision cross section under setting [1] was 348.3 ± 0.55 Å².

For “TQDQISNIKYHEEFEK [_TQDQISNIK(Acetyl (K))YHEEFEK_]”, the collision cross section worked out at 481.39 Å² under setting [3] and 555.65 ± 0.58 Å² under setting [4].

Take “IISSIEQKEENK [_IISSIEQK(hydroxyisobutyryl)EENK_]”: the collision cross section under setting [7] is 408.38 ± 0.3 Å² and the collision cross section under setting [8] was 478.99 ± 4 Å².

In turn, “LLEQKTQESQK [_LLEQK(Gluratylation)TQESQK_]” came in with a collision cross section under setting [9] of 402.96 ± 0.5 Å².

Take “AGPNASIISLKSDK [_AGPNASIISLK(GlyGly (K))SDK_]”: the collision cross section by setting is: under setting [10], 420.97 ± 0.85 Å²; under setting [11], 488.88 ± 2 Å².

Consider “VDIDAPDVSIEGPDAKLK [_VDIDAPDVSIEGPDAK(hydroxyisobutyryl)LK_]”, for which the collision cross section under setting [7] was determined as 475 ± 0.81 Å².

Take “GTISAPGKVVTAAAQAK [_GTISAPGK(Formyl)VVTAAAQAK_]”: the collision cross section worked out at 440.5 ± 0.16 Å² under setting [12] and 511.74 ± 2.1 Å² (charge state: 3, modification: Formyl).

Take “SDSGKPYYYNSQTK [_SDSGK(hydroxyisobutyryl)PYYYNSQTK_]”: the collision cross section is on record as 428.74 ± 0.3 Å² under setting [7] and 490.1 ± 3.9 Å² under setting [8].

Regarding “STGLELETPSLVPVKK [_STGLELETPSLVPVK(Crotonyl)K_]”, the collision cross section is reported as 437.59 Å² under setting [13] and 521.61 Å² under setting [14].

For the sequence “VPTTEKPTVTVNFR [_VPTTEK(Succinyl)PTVTVNFR_]”, the collision cross section was found to be 427.05 ± 0.52 Å² under setting [5] and 513.15 ± 2.5 Å² under setting [6].

ISALQGKLSK [_ISALQGK(Formyl)LSK_] had a collision cross section under setting [12] of 348.45 ± 1 Å².

Take TPNLYIYSKK [_TPNLYIYSK(Crotonyl)K_]: the collision cross section reads like this: under setting [13], 385.36 Å²; under setting [14], 432.18 Å².

In the case of SDDESSQKDIK [_SDDESSQK(GlyGly (K))DIK_], the collision cross section was found to be 380.21 ± 0.89 Å² under setting [10] and 442.7 ± 0.74 Å² under setting [11].

Take “STGLELETPSLVPVKK [_STGLELETPSLVPVK(Succinyl)K_]”: the collision cross section was 449.72 ± 9.5 Å² under setting [5] and 499.21 ± 23 Å² under setting [6].

In turn, “IDLPAENSNSETIIITGKR [_IDLPAENSNSETIIITGK(Methyl (K))R_]” displayed a collision cross section (charge state: 3, modification: Methyl (K)) of 568.48 ± 0.62 Å².

For the setting “charge state: 2, modification: Malonyl”, LDHLAEKFR [_LDHLAEK(Malonyl)FR_] gave a collision cross section of 366.99 ± 1.7 Å².

In the case of FHYQDQEFLK [_FHY(Nitro (Y))QDQEFLK_], the collision cross section by setting is: under setting [1], 402.47 ± 0.18 Å²; under setting [2], 452.15 ± 1.1 Å².

The sequence “ITESVAETAQTIKK [_ITESVAETAQTIK(hydroxyisobutyryl)K_]” showed a collision cross section under setting [7] of 425.76 ± 3.1 Å² and a collision cross section under setting [8] of 520.92 ± 2 Å².

Consider LGILPVGRGK [_LGILPVGR(Methyl (R))GK_], for which the collision cross section runs as follows: (charge state: 2, modification: Methyl (R)) 355.35 ± 1.4 Å²; (charge state: 3, modification: Methyl (R)) 437.92 Å².

Under setting [9], LAEEENKAK [_LAEEENK(Gluratylation)AK_] registered a collision cross section of 353.09 ± 0.078 Å².

(Values after the supplement of paper PMC10598134.)
